Measured values from the supplement of paper PMC9170038.

Test system: MS2 coat protein
Assay: apparent KD of MS2 coat protein; designed switch direction (-1 OFF switch, 1 ON switch): -1; higher = weaker reporter binding
Procedure, shortened: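 SNAP-549-labelled MS2 coat protein was titrated, doubling from 0.7 or 1.5 nM to 3 µM, over designed RNA switches transcribed on Illumina chips by stalled E. coli RNA polymerase. Runs were done without input, with 200 uM small-molecule ligand, or with an oligonucleotide input. Apparent KD is the per-design median over clusters of curve-fitted normalised fluorescence.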

[1] = Eterna round: R95, input ligand: FMN 200 uM
[2] = Eterna round: R95, input ligand: microRNA oligo, concentration not stated
[3] = Eterna round: R95, input ligand: none
[4] = input ligand: microRNA oligo, concentration not stated

| Sequence | apparent KD of MS2 coat protein [1] | apparent KD of MS2 coat protein [2] | apparent KD of MS2 coat protein [3] | apparent KD of MS2 coat protein (input ligand: FMN 200 uM) | apparent KD of MS2 coat protein (input ligand: none) | apparent KD of MS2 coat protein [4] |
| --- | --- | --- | --- | --- | --- | --- |
| GAUUGACAUGAGGAUCACCCAUGUGAGGAUAUCGGCUGGACCGUGUUGGCUUGGCUUUCGAGAAGGCGCAUAGG [Exclusion 1 V47] (puzzle: Exclusion 1) | 53.9 nM | 42.6 nM | 53.7 nM | – | – | – |
| GAUUUAGAGCAGGAUAUCAUAGAAUUGUAUGAAUGAGAAGGGCUCACAUGAGGAUCACCCAUGUGGUCCUAGAU [JL Dibiri mod 21] (puzzle: Exclusion 6) | – | 21.7 nM | – | – | – | – |
| GCAAGAAUAGGAUAUACACCAUGCCAGCUUCUAUACAACGCACAUGAGGAUCACCCAUGUAGAAGGGUUCUCUC [Exclusion-2-#11] (Eterna round: R97, puzzle: Exclusion 2) | – | – | – | 336 nM | 323 nM | – |
| GCAAGCUUAAUCUGUAUGAACAUGAGGAUCACCCAUGUAUAAGGGAAUUCUUUUGGGUUUUUUAUUGCUCGUCUUAU [JR_STOV1_Sub024] (Eterna round: R97, puzzle: Sensor, turn-off variant 1) | – | – | – | 260 nM | 329 nM | – |
| GCAAGCUUUUGCUCGUCUUACAUGAGGAUCACCCAUGUCGGGCCCGGGCUUCGUGGCCGGGCCCGCCGGGCGCCGGG [-37, -64.6 kcal, A 10%] (Eterna round: R97, puzzle: Sensor, turn-off variant 1) | – | – | – | 56.5 nM | 70.4 nM | – |
| GCAAGCUUUUUGCGUAGGAACAUGAGGAUCACCCAUGUGCAUGGAAAGAUGGGAAAGAAAGGAGAGAAAGAUGAAAG [Alacar 1] (Eterna round: R97, puzzle: Sensor, turn-off variant 1) | – | – | – | 101 nM | 88.1 nM | – |
| GCACGAAGUGGAGGAUAUCUGGGCGAGGAGCGCAGAGAAGGCCACAUGAGGAUCACCCAUGUGUUCCACGGAUCGCAAACGUGC [exng1 ex2] (Eterna round: R96, puzzle: Exclusion NG 1) | – | – | – | 69.3 nM | 20.9 nM | 14.4 nM |
| GCACGGAGUGUAGGAUAUCUGUGCGAUUAGCUCAGAGAAGGACACAUGAGGAUCACCCAUGUGUAACUCAAUACUAAUCCGUGC [Eli exng1 - 077] (Eterna round: R96, puzzle: Exclusion NG 1) | – | – | – | 10.6 nM | 10.7 nM | 7.89 nM |
| GCACGGUAAGUGAGGAUAUACCUCUGGAUACAGAGGUAGAAGGCACAUGAGGAUCACCCAUGUCUAUACCGUGC [Fiskers BMX 4 - 81] (puzzle: Brourd's mod of Exclusion 4) | 20.3 nM | 13.6 nM | 13.8 nM | – | – | – |
| GCACGGUAAGUGAGGAUAUACCUCUGGAUACAGAGGUAGAAGGCACAUGAGGAUCACCCAUGUUCCUGCCGUGC [Fiskers BMX 4 - 89] (puzzle: Brourd's mod of Exclusion 4) | – | 15.9 nM | – | – | – | – |
| GCACUGCGAGGAUAUACAUGAGGAUCACCCAUGUGUCGGCAGACUUGUUUGGUCUAAGGUAGAAGGCGCGUAAA [JR_Ex3_Sub003] (Eterna round: R97, puzzle: Exclusion 3) | – | – | – | 145 nM | 39.7 nM | – |
| GCACUGCGAGGAUAUACAUGAGGAUCACCCAUGUGUCGGCAGCCACGGUAGCACGAGUGUAGAAGGCGCGUUAG [EX3 #45] (Eterna round: R97, puzzle: Exclusion 3) | – | – | – | 146 nM | 31.2 nM | – |
| GCAGCAUAGUCGGAAUACGACAUACAUGAGGAUCACCCAUGUCAGGAUAUGGUCUGGAUUACAGGCCAGAAGGGACAAAGCUGC [Eli exng3 - 007] (Eterna round: R96, puzzle: Exclusion NG 3) | – | – | – | 24.8 nM | 20.1 nM | 17.1 nM |
